B1: Hammerhead Ribozyme (parent)
chain: ACCGGAUGUGCUUUCCGGUCUGAUGAGUCCGUGAGGACGAAACAG

Variants of: B1
Test: self-cleavage, relative activity (ratio to wild type); higher = more cleavage; co-transcriptional
U24G A42U showed a self-cleavage of 0.324. With U24G A44C the self-cleavage was 0.617. Variant U24G A44G has a self-cleavage of 1.49. U24G A44U showed a self-cleavage of 0.608. With U24G C29A the self-cleavage was 0.447. U24G C29G gave a self-cleavage of 0.781. With U24G C29U the self-cleavage was 0.987. U24G C30A gave a self-cleavage of 0.626. Work on U24G C30G yielded a self-cleavage of 0.727. U24G C30U showed a self-cleavage of 0.996. Work on U24G C38A yielded a self-cleavage of 0.742. U24G C38G gave a self-cleavage of 0.865. With U24G C38U the self-cleavage was 0.656. U24G C43A showed a self-cleavage of 0.402. Variant U24G C43G has a self-cleavage of 0.337. In the case of U24G C43U, the self-cleavage is reported as 0.463. U24G G25A showed a self-cleavage of 0.494. U24G G25C showed a self-cleavage of 0.294. U24G G25U gave a self-cleavage of 0.338. Work on U24G G27A yielded a self-cleavage of 0.504. Work on U24G G27C yielded a self-cleavage of 0.692. Variant U24G G27U has a self-cleavage of 0.438. U24G G31A showed a self-cleavage of 0.992. Variant U24G G31C has a self-cleavage of 1.19. In the case of U24G G31U, the self-cleavage is reported as 1.13. Variant U24G G33A has a self-cleavage of 1.18. Work on U24G G33C yielded a self-cleavage of 0.81. U24G G33U gave a self-cleavage of 1.02. Work on U24G G35A yielded a self-cleavage of 1.03. For U24G G35C, the self-cleavage was 0.839. In the case of U24G G35U, the self-cleavage is reported as 0.907. Variant U24G G36A has a self-cleavage of 0.862. U24G G36C gave a self-cleavage of 0.452. With U24G G36U the self-cleavage was 0.803. Work on U24G G39A yielded a self-cleavage of 0.327. With U24G G39C the self-cleavage was 0.266. U24G G39U showed a self-cleavage of 0.303. With U24G G45A the self-cleavage was 0.541. Variant U24G G45C has a self-cleavage of 0.536. In the case of U24G G45U, the self-cleavage is reported as 0.489. Work on U24G U28A yielded a self-cleavage of 0.912. U24G U28C showed a self-cleavage of 0.971. Work on U24G U28G yielded a self-cleavage of 0.885. Variant U24G U32A has a self-cleavage of 1.08. U24G U32C gave a self-cleavage of 0.858. Work on U24G U32G yielded a self-cleavage of 0.405. Work on G25A yielded a self-cleavage of 0.377. Work on G25A A26C yielded a self-cleavage of 0.339. With G25A A26G the self-cleavage was 0.306. With G25A A26U the self-cleavage was 0.341. G25A A34C gave a self-cleavage of 0.278. With G25A A34G the self-cleavage was 0.3. Variant G25A A34U has a self-cleavage of 0.357. With G25A A37C the self-cleavage was 0.301. With G25A A37G the self-cleavage was 0.351. Work on G25A A37U yielded a self-cleavage of 0.272. In the case of G25A A40C, the self-cleavage is reported as 0.368. In the case of G25A A40G, the self-cleavage is reported as 0.267. For G25A A40U, the self-cleavage was 0.356. In the case of G25A A41C, the self-cleavage is reported as 0.3. For G25A A41G, the self-cleavage was 0.337. With G25A A41U the self-cleavage was 0.275. With G25A A42C the self-cleavage was 0.262. Work on G25A A42G yielded a self-cleavage of 0.242. With G25A A42U the self-cleavage was 0.333. G25A A44C gave a self-cleavage of 0.38. With G25A A44G the self-cleavage was 0.64. With G25A A44U the self-cleavage was 0.343. Work on G25A C29A yielded a self-cleavage of 0.348. For G25A C29G, the self-cleavage was 0.347. G25A C29U gave a self-cleavage of 0.3. In the case of G25A C30A, the self-cleavage is reported as 0.369. Variant G25A C30G has a self-cleavage of 0.305. Work on G25A C30U yielded a self-cleavage of 0.331. In the case of G25A C38A, the self-cleavage is reported as 0.379. In the case of G25A C38G, the self-cleavage is reported as 0.33. G25A C38U gave a self-cleavage of 0.317. For G25A C43A, the self-cleavage was 0.294. Work on G25A C43G yielded a self-cleavage of 0.338. With G25A C43U the self-cleavage was 0.341. For G25A G27A, the self-cleavage was 0.306. For G25A G27C, the self-cleavage was 0.355. Variant G25A G27U has a self-cleavage of 0.314.

Source: the RNAGym collection of RNA variant scans (doi:10.7554/elife.80360)
